Assay [1] deals with egSepF-CTD G163K (E. gallinarum). Nature of the assay: AUC.
The target in assay [2] is saSepF-CTD G145K (S. aureus). As to the kind of experiment: AUC.

By stoichiometry N is commonly meant the number of molecules, sites or subunits per partner or assembly.

egSepF-CTD G163K (domain or fragment) showed a stoichiometry N in assay [1] of 2.
Substance saSepF-CTD G145K (domain or fragment) came in with a stoichiometry N in assay [2] of 2.

The values above are taken from paper doi:10.1101/2024.07.18.604210.
